Assay results: publication PMC4194032 (Cell, 2014)

B1: Bro1-VC (natural protein, budding yeast, UniProt P48582 1-844, looked up)
chain: MKPYLFDLKLKDTEKLDWKKGLSSYLKKSYGSSQWRTFYDEKATSELDHLRNNANGELAPSSLSEQNLKYYSFLEHLYFRLGSKGSRLKMDFTWYDAEYSSAQKGLKYTQHTLAFEKSCTLFNIAVIFTQIARENINEDYKNSIANLTKAFSCFEYLSENFLNSPSVDLQSENTRFLANICHAEAQELFVLKLLNDQISSKQYTLISKLSRATCNLFQKCHDFMKEIDDDVAIYGEPKWKTTVTCKLHFYKSLSAYYHGLHLEEENRVGEAIAFLDFSMQQLISSLPFKTWLVEFIDFDGFKETLEKKQKELIKDNDFIYHESVPAVVQVDSIKALDAIKSPTWEKILEPYMQDVANKCDSLYRGIIPLDVYEKESIYSEEKATLLRKQVEETETANLEYSSFIEFTNLPRLLSDLEKQFSDGNIFSNTDTQGQLMRDQIQTWCKFIQTNEFRDIEEQMNKIVFKRKQILEILSALPNDQKENVTKLKSSLVAASNSDEKLFACVKPHIVEINLLNDNGKIWKKFDEFNRNTPPQPSLLDIDDTKNDKILELLKQVKGHAEDLRTLKEERSRNLSELRDEINNDDITKLLIINKGKSDVELKDLFEVELEKFEPLSTRIEATIYKQSSMIDDIKAKLDEIFHLSNFKDKSSGEEKFLEDRKNFFDKLQEAVKSFSIFASDLPKGIEFYDSLFNMSRDLAERVRVAKQTEDSTANSPAPPLPPLDSKASVVGGPPLLPQKSAAFQSLSRQGLNLGDQFQNLKISAGSDLPQGPGIPPRTYEASPYAATPTMAAPPVPPKQSQEDMYDLRRRKAVENEERELQENPTSFYNRPSVFDENMYSKYSS
B2: Vps20-VC (natural protein, budding yeast, UniProt Q04272 1-221, looked up)
chain: MGQKSSKVHITKTDRAILEVKRSKDEIHKFTRRTDNLILVEKSQLKDLIRKNPENYKSNMKVRFLLKRIHYQEHLLQQASDQLINLENMVSTLEFKMVEKQFINGLKNGNEILKKLNKEFSNVDELMDDVQDQIAYQNEINETLSRSLVGTSNYEDDLDKELDALESELNPEKMNNAKVANMPSTEGLPSLPQGEQTEQKEREEFATEERSDTKEPLALLS
B3: Snf7-VC (natural protein, budding yeast, UniProt P39929 1-240, looked up)
chain: MWSSLFGWTSSNAKNKESPTKAIVRLREHINLLSKKQSHLRTQITNQENEARIFLTKGNKVMAKNALKKKKTIEQLLSKVEGTMESMEQQLFSIESANLNLETMRAMQEGAKAMKTIHSGLDIDKVDETMDEIREQVELGDEISDAISRPLITGANEVDEDELDEELDMLAQENANQETSKIVNNNVNAAPISENKVSLPSVPSNKIKQSENSVKDGEEEEDEEDEDEKALRELQAEMGL

Tests used:
Experiment in all cases: split reporter
[1] = biological target: Heh1-VN (budding yeast) (UniProt Q03707)
[2] = biological target: T1, Snf7-VN (budding yeast, UniProt P39929 1-240)
T1 sequence (looked up): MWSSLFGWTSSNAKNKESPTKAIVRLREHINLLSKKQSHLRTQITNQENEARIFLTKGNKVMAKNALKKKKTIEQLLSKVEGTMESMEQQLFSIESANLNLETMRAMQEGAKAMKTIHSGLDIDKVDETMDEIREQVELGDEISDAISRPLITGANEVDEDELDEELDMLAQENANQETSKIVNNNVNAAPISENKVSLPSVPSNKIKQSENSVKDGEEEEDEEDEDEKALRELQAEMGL

[3] = biological target: T2, Heh2-VN (budding yeast, UniProt Q03281 1-663)
T2 sequence (looked up): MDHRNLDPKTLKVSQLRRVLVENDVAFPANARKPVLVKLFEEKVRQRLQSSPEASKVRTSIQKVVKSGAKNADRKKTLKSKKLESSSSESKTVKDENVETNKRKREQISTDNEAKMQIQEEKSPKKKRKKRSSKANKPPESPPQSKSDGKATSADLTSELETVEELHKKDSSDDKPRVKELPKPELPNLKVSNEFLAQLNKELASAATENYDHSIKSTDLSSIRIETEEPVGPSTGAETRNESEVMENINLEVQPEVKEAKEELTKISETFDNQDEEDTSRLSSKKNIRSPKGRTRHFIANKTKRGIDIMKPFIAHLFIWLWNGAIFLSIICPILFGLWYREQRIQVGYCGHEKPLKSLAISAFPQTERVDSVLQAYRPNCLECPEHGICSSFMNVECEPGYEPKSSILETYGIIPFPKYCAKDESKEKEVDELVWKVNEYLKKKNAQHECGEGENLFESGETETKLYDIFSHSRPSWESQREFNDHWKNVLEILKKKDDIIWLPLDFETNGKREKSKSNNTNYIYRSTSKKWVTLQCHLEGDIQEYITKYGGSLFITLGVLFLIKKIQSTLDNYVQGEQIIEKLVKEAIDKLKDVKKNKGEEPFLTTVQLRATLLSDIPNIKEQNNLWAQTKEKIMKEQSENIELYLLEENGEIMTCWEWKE

Chain of Heh1-VN (budding yeast) (Q03707 whole entry): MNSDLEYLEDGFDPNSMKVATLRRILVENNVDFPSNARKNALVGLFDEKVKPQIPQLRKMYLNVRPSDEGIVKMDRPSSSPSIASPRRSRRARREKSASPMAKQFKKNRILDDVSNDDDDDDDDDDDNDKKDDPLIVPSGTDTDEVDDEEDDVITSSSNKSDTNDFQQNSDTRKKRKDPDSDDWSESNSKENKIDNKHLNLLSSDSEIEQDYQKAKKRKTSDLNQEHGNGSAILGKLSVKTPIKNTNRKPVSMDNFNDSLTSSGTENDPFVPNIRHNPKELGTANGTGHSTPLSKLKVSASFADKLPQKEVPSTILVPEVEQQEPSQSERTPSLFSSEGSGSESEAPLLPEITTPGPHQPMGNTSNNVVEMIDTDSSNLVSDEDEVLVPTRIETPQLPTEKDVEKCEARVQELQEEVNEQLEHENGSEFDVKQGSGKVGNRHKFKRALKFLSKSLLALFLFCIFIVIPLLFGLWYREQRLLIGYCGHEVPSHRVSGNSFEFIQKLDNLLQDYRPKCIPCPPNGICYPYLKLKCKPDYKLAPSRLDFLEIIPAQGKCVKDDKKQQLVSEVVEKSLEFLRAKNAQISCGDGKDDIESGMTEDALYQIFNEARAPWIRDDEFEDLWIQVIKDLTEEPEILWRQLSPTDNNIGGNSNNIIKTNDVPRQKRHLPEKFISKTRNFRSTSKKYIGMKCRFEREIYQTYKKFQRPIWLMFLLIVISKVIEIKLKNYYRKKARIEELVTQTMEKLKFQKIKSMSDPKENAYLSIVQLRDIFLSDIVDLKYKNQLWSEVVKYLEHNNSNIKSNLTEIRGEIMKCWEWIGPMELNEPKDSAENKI

Molecule	percent of cells with Venus fluorescence [2]	further results
Snf7-VC (from UniProt P39929 1-240) (natural protein)		percent of cells with Venus fluorescence [1]: 45 % of cells
B1	~90 % of cells	
B2	~90 % of cells	
B3		percent of cells with Venus fluorescence [3]: ~18 % of cells
